System: H1N1 influenza (A/PR8 strain)
Assay type: in vivo, C57BL/6 mice

B1: F-652: recombinant IL-22 dimer consisting of two monomeric subunits each comprising a sequence shown in SEQ ID NO: 24 (protein)
chain 1: APISSHCRLDKSNFQQPYITNRTFMLAKEASLADNNTDVRLIGEKLFHGVSMSERCYLMKQVLNFTLEEVLFPQSDRFQPYMQEVVPFLARLSNRLSTCHIEGDDLHIQRNVQKLKDTVKKLGESGEIKAIGELDLLFMSLRNACIGSGGGSGGGGSGGGGSVECPPCPAPPVAGPSVFLFPPKPKDTLMISRTPEVTCVVVDVSHEDPEVQFNWYVDGVEVHNAKTKPREEQFNSTFRVVSVLTVVHQDWLNGKEYKCKVSNKGLPASIEKTISKTKGQPREPQVYTLPPSREEMTKNQVSLTCLVKGFYPSDIAVEWESNGQPENNYKTTPPMLDSDGSFFLYSKLTVDKSRWQQGNVFSCSVMHEALHNHYTQKSLSLSPGK
chain 2: B1 chain 1
modifications: homodimer
- decreased small airway resistance at baseline (pattern differences) (6-week treatment groups): not seen
- input impedance (Re Zrs): baseline resistance in small airways (aged mice, not young mice, prior to airway recruitment maneuver): significantly improves baseline resistance

Reference: patent US20230079150A1, “METHODS FOR PREVENTION OR TREATMENT OF VIRUS-INDUCED ORGAN INJURY OR FAILURE WITH IL-22 DIMER” (priority 2020, published 2023)
